Assay results reported in patent US20220229068A1, “DETECTION OF PROTEIN TO PROTEIN INTERACTIONS” (THE GOVERNING COUNCIL OF THE UNIVERSITY OF TORONTO, priority 2019, published 2022).
Blank lines part the entries; values can stand above or below the substance they belong to.

Legend:
Test in all cases: SIMPL ELISA, bait-IN/prey-CIC
[1] = target: UBE2I (prey, CIC format) (human) (UniProt P63279)
[2] = target: LGALS3BP (prey, CIC format) (human) (UniProt Q08380)
[3] = target: LSM2 (prey, CIC format) (human) (UniProt Q9Y333)
[4] = target: FGFR1 (prey, CIC format) (human) (UniProt P11362)
[5] = target: CD58 (prey, CIC format) (human) (UniProt P19256)
[6] = target: GTF2F2 (prey, CIC format) (human) (UniProt P13984)
[7] = target: HGS (prey, CIC format) (human) (UniProt O14964)
[8] = target: T1, NOD1 (prey, CIC format) (human) (UniProt Q9Y239)
T1 sequence (looked up): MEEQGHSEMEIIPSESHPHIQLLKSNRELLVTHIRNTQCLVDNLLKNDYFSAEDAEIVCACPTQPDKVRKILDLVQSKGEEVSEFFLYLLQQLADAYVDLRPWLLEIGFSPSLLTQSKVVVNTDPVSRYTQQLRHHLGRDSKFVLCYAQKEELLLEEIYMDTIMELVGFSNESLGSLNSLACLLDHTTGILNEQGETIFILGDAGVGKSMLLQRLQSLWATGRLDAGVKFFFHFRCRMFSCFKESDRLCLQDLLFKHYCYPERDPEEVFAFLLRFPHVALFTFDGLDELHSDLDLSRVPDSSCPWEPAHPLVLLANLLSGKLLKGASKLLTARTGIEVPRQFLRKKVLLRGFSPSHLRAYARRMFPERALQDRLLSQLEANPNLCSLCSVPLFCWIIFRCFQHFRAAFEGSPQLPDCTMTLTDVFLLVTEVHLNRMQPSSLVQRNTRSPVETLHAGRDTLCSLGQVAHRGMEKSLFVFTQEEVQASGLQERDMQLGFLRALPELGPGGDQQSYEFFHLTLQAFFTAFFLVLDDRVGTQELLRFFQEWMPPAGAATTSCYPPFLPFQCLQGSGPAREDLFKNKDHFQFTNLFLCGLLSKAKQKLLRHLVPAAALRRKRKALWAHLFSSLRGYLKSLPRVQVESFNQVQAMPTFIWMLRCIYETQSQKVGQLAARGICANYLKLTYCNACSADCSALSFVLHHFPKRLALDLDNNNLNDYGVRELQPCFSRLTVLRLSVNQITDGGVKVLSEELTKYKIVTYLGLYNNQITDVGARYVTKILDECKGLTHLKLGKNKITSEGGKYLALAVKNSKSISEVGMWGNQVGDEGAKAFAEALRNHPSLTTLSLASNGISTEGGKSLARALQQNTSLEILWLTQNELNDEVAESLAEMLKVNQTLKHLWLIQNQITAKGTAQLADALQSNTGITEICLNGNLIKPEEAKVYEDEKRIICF

[9] = target: T2, LAT (prey, CIC format) (human) (UniProt O43561)
T2 sequence (looked up): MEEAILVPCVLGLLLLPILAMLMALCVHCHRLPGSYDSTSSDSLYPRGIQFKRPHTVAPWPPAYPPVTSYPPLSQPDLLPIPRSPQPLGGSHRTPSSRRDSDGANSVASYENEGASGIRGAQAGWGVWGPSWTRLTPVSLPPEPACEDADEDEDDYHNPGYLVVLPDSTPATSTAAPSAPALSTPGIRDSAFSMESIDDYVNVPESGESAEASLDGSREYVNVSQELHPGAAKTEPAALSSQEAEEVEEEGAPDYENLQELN

[10] = target: T3, PEX3 (prey, CIC format) (human) (UniProt P56589)
T3 sequence (looked up): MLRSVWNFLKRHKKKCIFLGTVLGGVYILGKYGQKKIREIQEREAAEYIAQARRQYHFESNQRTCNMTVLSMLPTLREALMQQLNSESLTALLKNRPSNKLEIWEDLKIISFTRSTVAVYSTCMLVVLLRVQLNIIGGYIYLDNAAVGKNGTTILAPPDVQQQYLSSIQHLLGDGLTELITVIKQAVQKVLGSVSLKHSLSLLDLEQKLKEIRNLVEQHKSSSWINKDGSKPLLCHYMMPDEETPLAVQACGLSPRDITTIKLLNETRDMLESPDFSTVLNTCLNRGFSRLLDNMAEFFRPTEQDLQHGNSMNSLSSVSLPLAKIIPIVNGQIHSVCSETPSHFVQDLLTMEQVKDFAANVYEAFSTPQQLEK

[11] = target: PTK2 (prey, CIC format) (human) (UniProt Q05397)
[12] = target: T4, VAV1 (prey, CIC format) (human) (UniProt P15498)
T4 sequence (looked up): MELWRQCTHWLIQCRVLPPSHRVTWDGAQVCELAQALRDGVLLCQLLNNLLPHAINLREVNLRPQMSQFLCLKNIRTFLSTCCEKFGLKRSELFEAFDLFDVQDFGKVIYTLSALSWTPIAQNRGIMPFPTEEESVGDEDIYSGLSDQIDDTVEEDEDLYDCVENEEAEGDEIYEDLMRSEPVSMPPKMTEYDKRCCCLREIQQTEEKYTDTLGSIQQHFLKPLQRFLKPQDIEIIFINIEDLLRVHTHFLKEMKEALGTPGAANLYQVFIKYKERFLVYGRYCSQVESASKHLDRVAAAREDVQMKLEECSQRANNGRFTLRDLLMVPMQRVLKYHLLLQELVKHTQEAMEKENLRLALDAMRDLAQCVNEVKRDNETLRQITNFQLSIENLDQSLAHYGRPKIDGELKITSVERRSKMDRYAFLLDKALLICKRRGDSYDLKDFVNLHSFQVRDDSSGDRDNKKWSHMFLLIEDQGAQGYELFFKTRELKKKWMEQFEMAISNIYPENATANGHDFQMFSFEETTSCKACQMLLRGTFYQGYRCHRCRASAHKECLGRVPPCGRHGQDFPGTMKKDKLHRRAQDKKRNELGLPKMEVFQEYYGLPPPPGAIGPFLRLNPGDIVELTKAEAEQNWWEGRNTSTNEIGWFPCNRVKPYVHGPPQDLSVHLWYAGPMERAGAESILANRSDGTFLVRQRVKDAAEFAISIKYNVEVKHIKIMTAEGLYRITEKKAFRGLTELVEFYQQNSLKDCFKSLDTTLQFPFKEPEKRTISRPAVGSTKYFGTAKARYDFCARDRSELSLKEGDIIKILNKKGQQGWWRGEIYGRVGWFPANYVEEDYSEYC

[13] = target: NCK1 (prey, CIC format) (human) (UniProt P16333)
[14] = target: T5, RB1 (prey, CIC format) (human) (UniProt P06400)
T5 sequence (looked up): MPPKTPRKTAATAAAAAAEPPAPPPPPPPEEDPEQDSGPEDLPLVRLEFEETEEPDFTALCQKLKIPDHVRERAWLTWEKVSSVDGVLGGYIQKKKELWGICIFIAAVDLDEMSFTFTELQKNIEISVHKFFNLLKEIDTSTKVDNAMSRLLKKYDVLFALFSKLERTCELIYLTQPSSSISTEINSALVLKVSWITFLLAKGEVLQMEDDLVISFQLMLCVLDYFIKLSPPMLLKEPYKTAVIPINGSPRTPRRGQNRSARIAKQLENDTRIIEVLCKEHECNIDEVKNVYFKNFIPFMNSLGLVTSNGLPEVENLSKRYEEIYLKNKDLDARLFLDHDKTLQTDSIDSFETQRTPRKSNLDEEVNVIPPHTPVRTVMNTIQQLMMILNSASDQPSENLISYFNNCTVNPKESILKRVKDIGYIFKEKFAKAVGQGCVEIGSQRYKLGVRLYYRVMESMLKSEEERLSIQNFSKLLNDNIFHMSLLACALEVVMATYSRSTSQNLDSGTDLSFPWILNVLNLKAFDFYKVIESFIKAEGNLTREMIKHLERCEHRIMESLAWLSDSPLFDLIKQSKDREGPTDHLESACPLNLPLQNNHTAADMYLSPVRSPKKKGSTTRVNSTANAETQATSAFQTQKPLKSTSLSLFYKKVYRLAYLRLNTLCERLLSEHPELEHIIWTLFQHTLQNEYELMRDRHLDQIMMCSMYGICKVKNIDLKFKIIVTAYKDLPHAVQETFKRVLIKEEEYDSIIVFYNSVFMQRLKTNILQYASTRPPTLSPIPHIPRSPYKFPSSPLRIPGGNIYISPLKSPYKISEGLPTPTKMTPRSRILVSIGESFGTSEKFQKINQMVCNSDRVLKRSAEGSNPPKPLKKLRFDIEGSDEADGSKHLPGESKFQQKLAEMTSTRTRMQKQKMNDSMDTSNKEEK

[15] = target: CRADD (prey, CIC format) (human) (UniProt P78560)
[16] = target: T6, NRG1 (prey, CIC format) (human) (UniProt Q02297)
T6 sequence (looked up): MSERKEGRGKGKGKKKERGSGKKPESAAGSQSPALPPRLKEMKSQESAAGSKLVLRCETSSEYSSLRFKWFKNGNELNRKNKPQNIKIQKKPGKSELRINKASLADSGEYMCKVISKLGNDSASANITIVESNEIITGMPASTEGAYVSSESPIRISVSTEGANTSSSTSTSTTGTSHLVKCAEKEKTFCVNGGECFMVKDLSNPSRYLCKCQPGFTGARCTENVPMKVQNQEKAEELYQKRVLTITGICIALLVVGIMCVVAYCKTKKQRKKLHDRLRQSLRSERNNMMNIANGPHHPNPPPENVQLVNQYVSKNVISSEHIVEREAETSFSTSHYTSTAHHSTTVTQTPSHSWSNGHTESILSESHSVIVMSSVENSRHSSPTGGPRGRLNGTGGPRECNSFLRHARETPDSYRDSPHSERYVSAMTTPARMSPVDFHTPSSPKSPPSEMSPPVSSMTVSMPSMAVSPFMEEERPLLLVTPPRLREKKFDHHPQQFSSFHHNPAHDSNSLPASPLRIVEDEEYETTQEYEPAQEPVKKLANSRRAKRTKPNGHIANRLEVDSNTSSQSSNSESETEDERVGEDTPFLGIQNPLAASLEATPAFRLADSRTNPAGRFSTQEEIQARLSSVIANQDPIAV

[17] = target: T7, PEX19 (prey, CIC format) (human) (UniProt P40855)
T7 sequence (looked up): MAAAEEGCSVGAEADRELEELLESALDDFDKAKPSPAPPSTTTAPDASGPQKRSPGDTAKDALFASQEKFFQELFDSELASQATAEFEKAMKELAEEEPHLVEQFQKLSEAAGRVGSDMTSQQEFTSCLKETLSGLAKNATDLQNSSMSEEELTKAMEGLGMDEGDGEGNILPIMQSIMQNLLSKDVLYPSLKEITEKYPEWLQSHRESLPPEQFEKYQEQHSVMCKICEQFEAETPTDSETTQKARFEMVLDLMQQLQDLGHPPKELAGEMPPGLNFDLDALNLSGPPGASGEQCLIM

[18] = target: PDGFRB (prey, CIC format) (human) (UniProt P09619)
[19] = target: CDK6 (prey, CIC format) (human) (UniProt Q00534)
Chain of CDK6 (prey, CIC format) (human) (Q00534 whole entry): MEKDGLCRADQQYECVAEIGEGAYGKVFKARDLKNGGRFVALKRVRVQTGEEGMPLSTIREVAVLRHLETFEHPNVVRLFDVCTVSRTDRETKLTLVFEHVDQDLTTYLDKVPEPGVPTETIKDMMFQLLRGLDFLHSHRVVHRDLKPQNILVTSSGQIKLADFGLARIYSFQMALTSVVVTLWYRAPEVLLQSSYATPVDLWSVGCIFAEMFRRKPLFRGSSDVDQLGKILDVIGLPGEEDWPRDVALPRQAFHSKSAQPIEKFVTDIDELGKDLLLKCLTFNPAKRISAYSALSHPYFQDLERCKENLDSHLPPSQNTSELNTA

Chain of CRADD (prey, CIC format) (human) (P78560 whole entry): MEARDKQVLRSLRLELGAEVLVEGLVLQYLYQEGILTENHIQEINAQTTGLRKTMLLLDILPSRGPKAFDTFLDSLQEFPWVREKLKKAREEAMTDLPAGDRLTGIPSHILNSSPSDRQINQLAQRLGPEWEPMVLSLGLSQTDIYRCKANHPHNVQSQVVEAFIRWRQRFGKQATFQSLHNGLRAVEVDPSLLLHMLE
Chain of LSM2 (prey, CIC format) (human) (Q9Y333 whole entry): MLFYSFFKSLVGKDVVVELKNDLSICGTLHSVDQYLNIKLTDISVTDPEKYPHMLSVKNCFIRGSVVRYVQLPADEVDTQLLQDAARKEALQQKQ
Chain of GTF2F2 (prey, CIC format) (human) (P13984 whole entry): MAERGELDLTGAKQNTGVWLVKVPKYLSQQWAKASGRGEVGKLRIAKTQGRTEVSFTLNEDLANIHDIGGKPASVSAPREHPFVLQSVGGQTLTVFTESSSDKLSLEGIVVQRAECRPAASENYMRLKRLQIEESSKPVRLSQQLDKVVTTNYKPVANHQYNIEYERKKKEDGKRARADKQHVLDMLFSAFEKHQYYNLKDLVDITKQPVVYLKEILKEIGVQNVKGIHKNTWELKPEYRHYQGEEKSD
Chain of LGALS3BP (prey, CIC format) (human) (Q08380 19-585 limits assumed): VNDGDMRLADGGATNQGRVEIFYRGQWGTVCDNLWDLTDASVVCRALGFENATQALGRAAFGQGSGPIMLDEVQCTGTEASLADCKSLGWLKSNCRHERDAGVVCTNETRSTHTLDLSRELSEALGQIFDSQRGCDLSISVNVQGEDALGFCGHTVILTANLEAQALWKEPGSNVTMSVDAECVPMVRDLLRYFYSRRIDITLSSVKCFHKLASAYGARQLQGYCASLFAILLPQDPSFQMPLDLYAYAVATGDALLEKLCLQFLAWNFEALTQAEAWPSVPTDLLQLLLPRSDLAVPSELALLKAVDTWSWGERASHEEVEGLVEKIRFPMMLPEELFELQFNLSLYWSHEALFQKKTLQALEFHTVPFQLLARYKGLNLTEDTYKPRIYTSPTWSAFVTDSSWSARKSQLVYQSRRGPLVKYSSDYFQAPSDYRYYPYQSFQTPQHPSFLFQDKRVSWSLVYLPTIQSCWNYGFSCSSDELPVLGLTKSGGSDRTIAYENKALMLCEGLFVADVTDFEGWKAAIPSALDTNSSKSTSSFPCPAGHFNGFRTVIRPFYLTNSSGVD
Chain of UBE2I (prey, CIC format) (human) (P63279 whole entry): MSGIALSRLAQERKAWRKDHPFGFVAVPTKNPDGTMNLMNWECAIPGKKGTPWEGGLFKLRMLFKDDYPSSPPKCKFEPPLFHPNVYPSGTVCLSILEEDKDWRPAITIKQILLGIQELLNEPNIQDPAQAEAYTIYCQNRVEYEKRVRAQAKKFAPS
Chain of FGFR1 (prey, CIC format) (human) (P11362 22-822 limits assumed): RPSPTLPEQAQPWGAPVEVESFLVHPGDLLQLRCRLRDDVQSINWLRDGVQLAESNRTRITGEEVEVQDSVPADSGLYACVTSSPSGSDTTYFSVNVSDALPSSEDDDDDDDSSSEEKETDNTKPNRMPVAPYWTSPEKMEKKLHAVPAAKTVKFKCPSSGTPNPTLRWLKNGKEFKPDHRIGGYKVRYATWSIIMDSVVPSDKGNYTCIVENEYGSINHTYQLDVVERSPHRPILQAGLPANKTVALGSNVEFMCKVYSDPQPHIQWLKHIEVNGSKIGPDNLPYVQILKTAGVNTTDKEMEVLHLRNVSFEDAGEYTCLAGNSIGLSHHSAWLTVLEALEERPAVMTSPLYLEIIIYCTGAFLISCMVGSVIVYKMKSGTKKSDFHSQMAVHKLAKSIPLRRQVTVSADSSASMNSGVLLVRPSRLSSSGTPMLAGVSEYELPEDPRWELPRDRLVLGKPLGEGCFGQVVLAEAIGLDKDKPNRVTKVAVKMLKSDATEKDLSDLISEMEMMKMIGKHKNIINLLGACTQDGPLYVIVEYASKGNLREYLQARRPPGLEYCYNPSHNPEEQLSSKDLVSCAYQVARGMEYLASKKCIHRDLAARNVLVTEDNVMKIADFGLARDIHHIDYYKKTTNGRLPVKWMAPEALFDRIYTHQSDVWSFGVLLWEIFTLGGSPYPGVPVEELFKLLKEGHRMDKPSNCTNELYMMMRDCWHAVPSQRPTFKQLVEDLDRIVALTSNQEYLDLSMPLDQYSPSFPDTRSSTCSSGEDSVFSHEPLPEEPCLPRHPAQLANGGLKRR
Chain of CASP2 (bait, IN format) (P42575 whole entry): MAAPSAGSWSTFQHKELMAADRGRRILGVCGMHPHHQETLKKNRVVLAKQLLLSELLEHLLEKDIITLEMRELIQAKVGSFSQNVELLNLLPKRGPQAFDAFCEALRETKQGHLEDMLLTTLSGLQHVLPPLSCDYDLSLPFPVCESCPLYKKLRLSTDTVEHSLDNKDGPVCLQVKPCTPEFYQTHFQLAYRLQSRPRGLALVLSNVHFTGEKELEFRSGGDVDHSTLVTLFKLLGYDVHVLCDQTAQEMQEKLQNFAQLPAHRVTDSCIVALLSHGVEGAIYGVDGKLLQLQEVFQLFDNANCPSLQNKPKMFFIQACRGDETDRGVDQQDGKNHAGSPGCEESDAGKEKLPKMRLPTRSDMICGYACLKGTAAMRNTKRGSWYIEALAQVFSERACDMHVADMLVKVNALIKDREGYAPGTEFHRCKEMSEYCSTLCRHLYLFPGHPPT
Chain of CD58 (prey, CIC format) (human) (P19256 29-250 limits assumed): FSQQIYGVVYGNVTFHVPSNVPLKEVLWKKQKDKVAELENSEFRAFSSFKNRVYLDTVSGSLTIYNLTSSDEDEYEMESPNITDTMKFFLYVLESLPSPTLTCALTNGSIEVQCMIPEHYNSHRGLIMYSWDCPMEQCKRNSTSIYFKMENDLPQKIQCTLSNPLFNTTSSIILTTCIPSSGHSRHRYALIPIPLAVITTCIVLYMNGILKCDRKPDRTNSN
Chain of HGS (prey, CIC format) (human) (O14964 whole entry): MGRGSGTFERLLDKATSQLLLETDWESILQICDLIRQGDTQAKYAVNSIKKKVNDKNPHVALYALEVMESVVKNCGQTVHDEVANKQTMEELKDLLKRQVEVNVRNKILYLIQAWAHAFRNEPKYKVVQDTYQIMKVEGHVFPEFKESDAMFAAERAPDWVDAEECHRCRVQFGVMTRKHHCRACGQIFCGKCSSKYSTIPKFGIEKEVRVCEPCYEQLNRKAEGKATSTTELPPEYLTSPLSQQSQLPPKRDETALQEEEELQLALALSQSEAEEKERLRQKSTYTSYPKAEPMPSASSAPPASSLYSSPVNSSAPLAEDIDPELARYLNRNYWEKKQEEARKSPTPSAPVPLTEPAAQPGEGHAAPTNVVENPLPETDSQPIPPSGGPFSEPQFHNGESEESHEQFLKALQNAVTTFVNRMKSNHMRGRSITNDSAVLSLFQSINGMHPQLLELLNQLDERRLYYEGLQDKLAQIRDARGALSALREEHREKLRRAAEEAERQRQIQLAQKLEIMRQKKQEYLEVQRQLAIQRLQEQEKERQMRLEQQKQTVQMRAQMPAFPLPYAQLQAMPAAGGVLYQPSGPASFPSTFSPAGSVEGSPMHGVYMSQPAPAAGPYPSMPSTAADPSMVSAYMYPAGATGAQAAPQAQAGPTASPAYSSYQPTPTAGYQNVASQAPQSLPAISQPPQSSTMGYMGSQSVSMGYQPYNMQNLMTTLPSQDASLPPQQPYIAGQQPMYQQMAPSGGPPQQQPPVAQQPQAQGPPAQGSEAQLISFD
Chain of PDGFRB (prey, CIC format) (human) (P09619 33-1106 limits assumed): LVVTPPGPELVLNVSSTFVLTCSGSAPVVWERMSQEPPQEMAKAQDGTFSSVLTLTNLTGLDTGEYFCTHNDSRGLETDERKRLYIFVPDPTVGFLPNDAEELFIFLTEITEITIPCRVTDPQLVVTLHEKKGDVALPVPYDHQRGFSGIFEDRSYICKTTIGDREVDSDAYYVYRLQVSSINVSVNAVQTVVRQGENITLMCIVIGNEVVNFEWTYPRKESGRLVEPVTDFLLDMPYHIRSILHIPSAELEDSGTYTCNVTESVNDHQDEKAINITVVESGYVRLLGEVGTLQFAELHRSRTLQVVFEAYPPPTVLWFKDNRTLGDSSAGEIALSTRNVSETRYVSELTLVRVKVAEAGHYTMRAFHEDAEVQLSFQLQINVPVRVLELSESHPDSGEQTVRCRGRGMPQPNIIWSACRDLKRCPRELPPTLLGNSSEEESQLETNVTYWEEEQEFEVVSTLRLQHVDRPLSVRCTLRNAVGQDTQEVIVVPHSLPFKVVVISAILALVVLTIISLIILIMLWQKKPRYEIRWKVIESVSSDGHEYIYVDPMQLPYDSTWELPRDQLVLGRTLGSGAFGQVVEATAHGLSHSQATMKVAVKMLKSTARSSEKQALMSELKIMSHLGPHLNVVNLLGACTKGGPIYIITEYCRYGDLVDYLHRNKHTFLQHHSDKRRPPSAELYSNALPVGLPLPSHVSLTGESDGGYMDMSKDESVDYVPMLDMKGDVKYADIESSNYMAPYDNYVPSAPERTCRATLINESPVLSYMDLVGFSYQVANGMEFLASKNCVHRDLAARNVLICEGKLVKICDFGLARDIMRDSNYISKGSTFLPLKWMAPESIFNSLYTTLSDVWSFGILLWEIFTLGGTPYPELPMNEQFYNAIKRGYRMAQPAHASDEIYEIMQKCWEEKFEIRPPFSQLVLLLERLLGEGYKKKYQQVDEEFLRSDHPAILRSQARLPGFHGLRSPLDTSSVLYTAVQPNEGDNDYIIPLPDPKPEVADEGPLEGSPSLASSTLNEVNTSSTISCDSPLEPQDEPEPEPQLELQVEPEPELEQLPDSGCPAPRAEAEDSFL

Substance: TP53 (bait, IN format) (from UniProt P04637 1-393)
PLU mean [1]: 0.194

Substance: LGALS3 (bait, IN format) (from UniProt P17931 1-250)
PLU mean [2]: 0.248
PLU mean [3]: 0.162

Substance: CD2 (bait, IN format) (from UniProt P06729 25-351) (receptor)
PLU mean [5]: 0.972
PLU mean [6]: 0.299
PLU mean [7]: 0.253

Substance: GTF2F1 (bait, IN format) (from UniProt P35269 1-517)
PLU mean [6]: 3.24
PLU mean [8]: 0.133

Substance: GRB2 (bait, IN format) (from UniProt P62993 1-217)
PLU mean [9]: 0.223
PLU mean [10]: 0.0588
PLU mean [11]: 0.741
PLU mean [12]: 1.39

Substance: FGF1 (bait, IN format) (from UniProt P05230 1-155) (ligand)
PLU mean [4]: 0.334
PLU mean [13]: 0.374
PLU mean [14]: 0.324

Substance: LCP2 (bait, IN format) (from UniProt Q13094 1-533)
PLU mean [15]: 0.193
PLU mean [13]: 0.662
PLU mean [12]: 0.789

Substance: CCND3 (bait, IN format) (from UniProt P30281 1-292)
PLU mean [19]: 2.72

Next, values leading:

PLU mean [4]: 0.272
PLU mean [2]: 0.129
PLU mean [3]: 3.03
Substance: LSM3 (bait, IN format) (from UniProt P62310 1-102)

PLU mean [15]: 2.45
PLU mean [12]: 0.696
Substance: CASP2 (bait, IN format) (from UniProt P42575 1-452)

PLU mean [16]: 0.31
PLU mean [17]: 2.17
Substance: PEX14 (bait, IN format) (from UniProt O75381 1-377)

PLU mean [18]: 0.261
PLU mean [1]: 0.153
Substance: CRK (bait, IN format) (from UniProt P46108 1-304)

PLU mean [19]: 0.316
Substance: TNFSF10 (bait, IN format) (from UniProt P50591 1-281) (ligand)
